Results from PMC9784774, “Neutralization Epitopes in Trimer and Pentamer Complexes Recognized by Potent Cytomegalovirus-Neutralizing Human Monoclonal Antibodies” (Microbiology Spectrum, 2022).

How the values were obtained:
Conditions in all cases: both partners purified
[1] = target: T1, recombinant gH/gL/UL128/UL130/UL131A pentamer (wild type) (Human cytomegalovirus VR1814 (gH strain …, UniProt Q6SW67;F5HCH8;PDB)); assay: SPR; Biacore X100, CM5 chip, RT, 1:1 binding model; methods: antibody (4 μg/mL) captured by anti-human Fc IgG to about 100 RU, pentamer or trimer in five 2-fold dilutions injected at 30 μL/min, 90 s association, 600 s dissociation (the legend of Fig. 5 tells the reverse orientation)
T1 construct: also called CMV pentamer; HCMV pentamer complex; source: HEK293F, cotransfected with gH, gL, UL128, UL130 and UL131A plasmids, purified (Ni-NTA, SEC); not shown: His6, C-terminal, kept; copies: + + + +
T1 sequence (F5HCH8 whole entry, looked up, chain 1 of 2): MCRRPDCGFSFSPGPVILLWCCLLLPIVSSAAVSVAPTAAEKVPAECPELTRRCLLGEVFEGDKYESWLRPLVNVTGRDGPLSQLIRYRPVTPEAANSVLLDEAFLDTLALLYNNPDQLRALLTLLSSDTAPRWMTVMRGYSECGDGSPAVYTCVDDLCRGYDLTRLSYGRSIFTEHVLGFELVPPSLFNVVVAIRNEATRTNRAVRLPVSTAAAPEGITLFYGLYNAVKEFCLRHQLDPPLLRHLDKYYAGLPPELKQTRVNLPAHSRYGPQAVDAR
T1 sequence (Q6SW67 whole entry, looked up, chain 2 of 2): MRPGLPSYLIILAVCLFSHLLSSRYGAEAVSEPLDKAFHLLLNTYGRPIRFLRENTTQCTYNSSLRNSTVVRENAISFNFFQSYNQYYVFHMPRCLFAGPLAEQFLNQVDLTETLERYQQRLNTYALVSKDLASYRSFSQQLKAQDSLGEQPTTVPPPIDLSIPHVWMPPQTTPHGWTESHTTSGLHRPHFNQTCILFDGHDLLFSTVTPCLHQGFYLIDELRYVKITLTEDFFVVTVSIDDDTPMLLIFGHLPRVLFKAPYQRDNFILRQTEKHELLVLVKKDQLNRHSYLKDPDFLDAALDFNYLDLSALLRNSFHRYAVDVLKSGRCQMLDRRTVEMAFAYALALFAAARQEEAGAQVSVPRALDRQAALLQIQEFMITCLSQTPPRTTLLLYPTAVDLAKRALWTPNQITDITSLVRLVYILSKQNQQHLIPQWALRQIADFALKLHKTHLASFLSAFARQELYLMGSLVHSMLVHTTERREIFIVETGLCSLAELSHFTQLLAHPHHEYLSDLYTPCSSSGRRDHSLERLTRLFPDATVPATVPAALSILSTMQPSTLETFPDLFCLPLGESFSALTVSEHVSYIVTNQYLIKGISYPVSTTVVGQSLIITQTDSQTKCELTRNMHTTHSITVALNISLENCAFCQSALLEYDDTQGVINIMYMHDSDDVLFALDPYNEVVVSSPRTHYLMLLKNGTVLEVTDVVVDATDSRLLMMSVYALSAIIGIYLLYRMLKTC

[2] = target: T1, recombinant gH/gL/UL128/UL130/UL131A …; assay: as above; remark: listed apart in the source
[3] = target: T2, recombinant gH/gL/UL128/UL130/UL131A pentamer (wild type) (Human cytomegalovirus VR1814 (gH strain …, UniProt Q6SW67;F5HCH8;PDB)); assay: ELISA; pentamer, trimer or pentamer mutant coated at 100 ng/well (carbonate bicarbonate buffer pH 7.4, overnight 4°C); purified antibodies in eight serial 3-fold dilutions from 1 μg/mL, 37°C 1 h; detected with goat anti-human IgG (H+L)-HRP
T2 construct: also called CMV pentamer; HCMV pentamer complex; source: HEK293F, cotransfected with gH, gL, UL128, UL130 and UL131A plasmids, purified (Ni-NTA, SEC); not shown: His6, C-terminal, kept; copies: + + + +
T2 sequence (F5HCH8 whole entry, looked up, chain 1 of 2): as the sequence (F5HCH8 whole entry, looked up, chain 1 of 2) above
T2 sequence (Q6SW67 whole entry, looked up, chain 2 of 2): as the sequence (Q6SW67 whole entry, looked up, chain 2 of 2) above

[4] = target: T2, recombinant gH/gL/UL128/UL130/UL131A …; assay: SPR; Biacore X100, CM5 chip, RT, 1:1 binding model; methods: antibody (4 μg/mL) captured by anti-human Fc IgG to about 100 RU, pentamer or trimer in five 2-fold dilutions injected at 30 μL/min, 90 s association, 600 s dissociation (the legend of Fig. 5 tells the reverse orientation); remark: listed apart in the source

B1: MAb 9I6 (antibody, V domains shown)
VH: EVQLVQSGAEVKKPGESLKISCRESGDTFPAYWIAWVRQMPGKGLEWMGIIYPIDSETTYSPSFQGQVTISADKSINTAYLQWSSLKASDSAIYYCARGTSTGLREAFHIWGQGTMVTVSS
VL: DVVMTQSPLSLAVTLGQPAYISCRSSQSLGYSDGNTYLNWFQQRPGQSPRRLIYEVSNRDSGVPDRFSGSGSGTDFTLKISRVEAEDVGTYYCMQGTHWPPMCSFGQGTKLEIK
notes: source: 293F cells, transient transfection, purified (protein A)
With B1 the Kd [1] was 0.484 nM, the Kd [2] was 0.82 nM and the koff [2] was 0.000139 s⁻¹. The kon [2] was 168000 M⁻¹ s⁻¹.

B2: MAb 8I21 (antibody, V domains shown)
VH: LVELVESGGGVVQPGRSLRLSCAASGFTFSSDGMHWVRQSPGRGLEWVAFISSDGSTPYYADSVKGRFTISRDNSKNTLYLQMNSLRAEDTAMYFCAKDWALFRWLRTFDHWGQGTLVTVSS
VL: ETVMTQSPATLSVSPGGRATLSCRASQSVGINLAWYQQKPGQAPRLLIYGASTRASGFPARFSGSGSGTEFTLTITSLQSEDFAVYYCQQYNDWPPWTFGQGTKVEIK
notes: as for B1
B2: binds [3].

B3: MAb MSL-109 (antibody, V domains shown)
VH: EEQVLESGGGLVKPGGSLRLSCAASGFTFSPYSVFWVRQAPGKGLEWVSSINSDSTYKYYADSVKGRFTISRDNAENSIFLQMNSLRAEDTAVYYCARDRSYYAFSSGSLSDYYYGLDVWGQGTLVTVSS
VL: DIVMTQSPLSLSVTPGEPASISCRSSQSLLHTNGYNYLDWYVQKPGQSPQLLIYLASNRASGVPDRFSGSGSGTDFTLKISRVETEDVGVYYCMQALQIPRTFGQGTKVEIK
notes: as for B1
Binder B3 has a Kd [4] of 1.33 nM, a koff [4] of 0.00156 s⁻¹ and a kon [4] of 1.17e+06 M⁻¹ s⁻¹.
